Eight molecules from paper doi:10.1101/2024.06.01.596940 (bioRxiv, 2024) can be followed below.

Assay [1] concerns the target human GPR182 (untagged), stably expressed on HEK293T cells (human, UniProt O15218 1-404). In words: flow cytometry on cells.
Assay [2] deals with T1, mouse GPR182 (untagged), stably expressed on HEK293T cells (mouse, UniProt P43142 1-398).
T1 sequence: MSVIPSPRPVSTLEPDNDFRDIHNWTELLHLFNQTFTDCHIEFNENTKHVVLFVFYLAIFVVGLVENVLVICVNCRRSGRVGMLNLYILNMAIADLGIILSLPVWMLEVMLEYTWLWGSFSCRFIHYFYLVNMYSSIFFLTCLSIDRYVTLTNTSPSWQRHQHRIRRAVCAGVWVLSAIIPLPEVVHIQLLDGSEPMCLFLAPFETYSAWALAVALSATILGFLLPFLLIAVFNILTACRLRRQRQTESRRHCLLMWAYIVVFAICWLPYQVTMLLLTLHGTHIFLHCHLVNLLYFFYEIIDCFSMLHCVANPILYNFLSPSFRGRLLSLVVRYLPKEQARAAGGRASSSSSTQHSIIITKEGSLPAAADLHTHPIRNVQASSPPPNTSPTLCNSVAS
Briefly: flow cytometry on cells.

human GPR182 (untagged), stably expressed on HEK293T cells, sequence (O15218 whole entry): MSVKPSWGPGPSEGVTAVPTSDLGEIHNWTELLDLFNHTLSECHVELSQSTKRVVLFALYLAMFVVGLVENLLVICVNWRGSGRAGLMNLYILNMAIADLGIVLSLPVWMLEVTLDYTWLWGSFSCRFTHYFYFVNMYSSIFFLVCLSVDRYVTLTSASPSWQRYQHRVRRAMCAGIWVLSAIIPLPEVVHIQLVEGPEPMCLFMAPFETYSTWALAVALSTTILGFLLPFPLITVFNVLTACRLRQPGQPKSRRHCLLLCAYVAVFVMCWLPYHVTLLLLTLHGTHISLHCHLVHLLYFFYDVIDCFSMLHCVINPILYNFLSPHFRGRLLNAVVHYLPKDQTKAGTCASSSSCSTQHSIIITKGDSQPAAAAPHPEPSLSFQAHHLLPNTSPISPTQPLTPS

B1: human CCL25 (ligand)
chain: QGVFEDCCLAYHYPIGWAVLRRAWTYRIQEVSGSCNLPAAIFYLPKRHRKVCGNPKSREVQRAMKLLDARNKVFAKLHHNTQTFQAGPHAVKKLSSGNSKLSSSKFSNPISSSKRNVSLLISANSGL
With B1, the negative-log IC50 (pIC50) in assay [1] stood at 7.17.

B2: human CXCL17 (ligand)
chain: SSLNPGVARGHRDRGQASRRWLQEGGQECECKDWFLRAPRRKFMTVSGLPKKQCPCDHFKGNVKKTRHQRHHRKPNKHSRACQQFLKQCQLRSFALPL
For B2, the negative-log IC50 (pIC50) in assay [1] came out at 7.89.

B3: human CXCL13 (ligand)
chain: VLEVYYTSLRCRCVQESSVFIPRRFIDRIQILPRGNGCPRKEIIVWKKNKSIVCVDPQAEWIQRMMEVLRKRSSSTLPVPVFKRKIP
Regarding B3, the pIC50 in assay [1] amounted to 7.67.

B4: mouse GPR15L (ligand)
chain: RRHPAKSLKLRRCCHLSPRSKLTTWKGNHTRPCRLCRNKLPVKSWVVPGALPQI
In assay [2], B4 returned a negative logarithm of the IC50 (pIC50) of 7.06.

B5: human CCL19 (ligand)
chain: GTNDAEDCCLSVTQKPIPGYIVRNFHYLLIKDGCRVPAVVFTTLRGRQLCAPPDQPWVERIIQRLQRTSAKMKRRSS
In turn, B5 yielded a negative logarithm of the IC50 (pIC50) in assay [1] of 7.21.

B6: mouse CXCL17 (ligand)
chain: SPNPGVARSHGDQHLAPRRWLLEGGQECECKDWFLQAPKRKATAVLGPPRKQCPCDHVKGREKKNRHQKHHRKSQRPSRACQQFLKRCHLASFALPL
With B6, in assay [2], the negative logarithm of the IC50 (pIC50) is 5.61.

B7: human GPR15L (ligand)
chain: KRRPAKAWSGRRTRLCCHRVPSPNSTNLKGHHVRLCKPCKLEPEPRLWVVPGALPQV
Turning to B7, the negative-log IC50 (pIC50) in assay [1] amounted to 8.

B8: viral macrophage inflammatory protein II (ligand)
chain: GDTLGASWHRPDKCCLGYQKRPLPQVLLSSWYPTSQLCSKPGVIFLTKRGRQVCADKSKDWVKKLMQQLPVTAR
B8: the pIC50 in assay [1] came to 7.87; in assay [2], 6.13.
